From paper PMC2132731 (The Journal of Cell Biology, 1998)
Where “and” joins values, the source holds several entries; their conditions need not be identical. Equal values may be shown once.

T1: Pan1p EH1–2 (96–713) (S. cerevisiae, UniProt P32521 96-713)
T1 sequence (looked up): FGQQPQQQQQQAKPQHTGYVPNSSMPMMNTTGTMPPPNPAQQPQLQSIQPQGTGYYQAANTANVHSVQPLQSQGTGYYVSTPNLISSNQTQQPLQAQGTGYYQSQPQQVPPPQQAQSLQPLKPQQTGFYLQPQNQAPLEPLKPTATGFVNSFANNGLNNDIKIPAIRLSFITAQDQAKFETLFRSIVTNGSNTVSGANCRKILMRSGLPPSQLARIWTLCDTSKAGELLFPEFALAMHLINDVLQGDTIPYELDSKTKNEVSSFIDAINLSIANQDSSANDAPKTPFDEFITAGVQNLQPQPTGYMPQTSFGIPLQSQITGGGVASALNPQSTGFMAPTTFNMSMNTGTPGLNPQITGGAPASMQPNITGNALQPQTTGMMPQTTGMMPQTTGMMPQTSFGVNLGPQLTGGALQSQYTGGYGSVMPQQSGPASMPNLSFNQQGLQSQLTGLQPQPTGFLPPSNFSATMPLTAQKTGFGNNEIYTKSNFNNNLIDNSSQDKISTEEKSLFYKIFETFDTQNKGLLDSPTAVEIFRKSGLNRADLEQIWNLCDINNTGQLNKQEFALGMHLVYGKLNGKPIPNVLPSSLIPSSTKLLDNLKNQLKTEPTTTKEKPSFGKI

T2: Pan1p EH1 (96–403) (S. cerevisiae, UniProt P32521 96-403)
T2 sequence (looked up): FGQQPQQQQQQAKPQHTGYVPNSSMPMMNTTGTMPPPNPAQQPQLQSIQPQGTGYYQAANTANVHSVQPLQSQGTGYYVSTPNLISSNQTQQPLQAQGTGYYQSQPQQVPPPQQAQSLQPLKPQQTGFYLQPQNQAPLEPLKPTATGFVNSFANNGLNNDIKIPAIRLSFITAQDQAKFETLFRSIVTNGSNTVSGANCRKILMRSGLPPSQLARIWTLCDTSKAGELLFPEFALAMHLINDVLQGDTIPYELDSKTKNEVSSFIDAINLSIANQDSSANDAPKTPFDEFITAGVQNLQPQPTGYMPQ

T3: Pan1p EH2 (96–145/403–713) (S. cerevisiae, UniProt P32521 96-145; P32521 403-713)
T3 chain (looked up): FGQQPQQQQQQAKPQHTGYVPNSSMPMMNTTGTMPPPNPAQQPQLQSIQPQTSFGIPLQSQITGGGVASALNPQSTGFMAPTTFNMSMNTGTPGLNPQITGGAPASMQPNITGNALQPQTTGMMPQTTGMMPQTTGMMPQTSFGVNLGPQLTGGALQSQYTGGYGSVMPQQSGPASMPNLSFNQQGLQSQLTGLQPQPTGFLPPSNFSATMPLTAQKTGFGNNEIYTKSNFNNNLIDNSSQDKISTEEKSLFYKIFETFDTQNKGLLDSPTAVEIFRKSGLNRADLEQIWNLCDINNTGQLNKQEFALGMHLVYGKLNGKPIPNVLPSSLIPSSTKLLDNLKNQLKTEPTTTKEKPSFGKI

T4: Pan1p EH2 (544–713) (S. cerevisiae, UniProt P32521 544-713)
T4 sequence (looked up): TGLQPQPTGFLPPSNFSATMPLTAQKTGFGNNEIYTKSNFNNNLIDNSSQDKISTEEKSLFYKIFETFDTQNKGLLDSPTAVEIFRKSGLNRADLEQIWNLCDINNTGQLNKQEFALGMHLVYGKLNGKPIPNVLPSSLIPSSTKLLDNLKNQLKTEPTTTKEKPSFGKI

T5: Pan1p (S. cerevisiae (endogenous in yeast cells)), P32521
T5 chain: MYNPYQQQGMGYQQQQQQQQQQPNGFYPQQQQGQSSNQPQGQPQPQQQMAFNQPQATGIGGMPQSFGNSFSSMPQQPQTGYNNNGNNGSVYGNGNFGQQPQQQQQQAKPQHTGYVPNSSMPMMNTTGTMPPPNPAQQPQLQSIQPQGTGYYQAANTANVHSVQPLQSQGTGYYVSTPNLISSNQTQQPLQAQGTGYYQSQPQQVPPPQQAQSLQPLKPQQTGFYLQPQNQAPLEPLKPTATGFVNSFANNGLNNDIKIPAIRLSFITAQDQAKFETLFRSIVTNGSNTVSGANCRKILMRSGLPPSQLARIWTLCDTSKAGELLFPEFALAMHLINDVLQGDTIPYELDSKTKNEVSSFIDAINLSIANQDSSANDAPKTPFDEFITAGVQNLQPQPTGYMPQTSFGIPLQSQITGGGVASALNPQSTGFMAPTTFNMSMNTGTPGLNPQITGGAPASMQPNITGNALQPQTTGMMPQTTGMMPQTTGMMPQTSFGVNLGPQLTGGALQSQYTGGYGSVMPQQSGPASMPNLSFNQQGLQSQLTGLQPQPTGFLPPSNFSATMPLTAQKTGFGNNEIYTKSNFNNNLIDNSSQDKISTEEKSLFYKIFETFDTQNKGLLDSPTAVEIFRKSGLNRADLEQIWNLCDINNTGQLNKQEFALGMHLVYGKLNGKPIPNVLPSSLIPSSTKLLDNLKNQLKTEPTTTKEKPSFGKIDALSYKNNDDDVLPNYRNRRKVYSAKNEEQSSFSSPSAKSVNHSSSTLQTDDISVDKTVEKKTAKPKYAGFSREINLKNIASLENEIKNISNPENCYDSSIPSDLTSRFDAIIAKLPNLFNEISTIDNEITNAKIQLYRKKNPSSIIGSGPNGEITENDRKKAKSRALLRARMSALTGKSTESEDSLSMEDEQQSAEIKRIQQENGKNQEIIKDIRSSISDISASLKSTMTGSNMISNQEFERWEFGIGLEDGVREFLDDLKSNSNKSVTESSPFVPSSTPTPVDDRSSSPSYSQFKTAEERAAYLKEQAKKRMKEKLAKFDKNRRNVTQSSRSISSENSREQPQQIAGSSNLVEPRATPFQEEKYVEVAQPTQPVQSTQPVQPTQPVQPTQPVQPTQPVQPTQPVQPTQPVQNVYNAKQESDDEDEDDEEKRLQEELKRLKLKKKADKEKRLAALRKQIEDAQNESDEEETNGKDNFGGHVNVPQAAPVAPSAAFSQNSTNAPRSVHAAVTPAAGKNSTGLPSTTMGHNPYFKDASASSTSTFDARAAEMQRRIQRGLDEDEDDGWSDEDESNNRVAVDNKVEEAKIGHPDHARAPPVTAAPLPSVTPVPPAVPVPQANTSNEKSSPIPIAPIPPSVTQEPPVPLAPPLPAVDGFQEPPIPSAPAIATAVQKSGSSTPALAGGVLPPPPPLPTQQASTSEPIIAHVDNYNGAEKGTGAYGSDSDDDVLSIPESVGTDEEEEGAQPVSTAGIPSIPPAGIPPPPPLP


What was measured:
[1] = molecular target: GST-yAP180A C5 (S. cerevisiae); experiment: pull-down
Pan1p EH1–2 (96–713) = molecular target: T1, Pan1p EH1–2 (96–713); experiment: two-hybrid
Pan1p EH1 (96–403) = molecular target: T2, Pan1p EH1 (96–403); experiment: two-hybrid
[2] = molecular target: T3, Pan1p EH2 (96–145/403–713); experiment: two-hybrid
Pan1p EH2 (544–713) = molecular target: T4, Pan1p EH2 (544–713); experiment: two-hybrid
[3] = molecular target: T5, Pan1p (S. cerevisiae (endogenous in …)); experiment: co-IP; details: remark: other sources report otherwise

percent of Chc1p depleted from the unbound fraction [1]	units β-galactosidase activity (Pan1p EH1–2 (96–713))	units β-galactosidase activity (Pan1p EH1 (96–403))	units β-galactosidase activity [2]	units β-galactosidase activity (Pan1p EH2 (544–713))	percent of yAP180A coimmunoprecipitated [3]	Molecule
50%	–	–	–	–	–	yeast clathrin (from UniProt P22137 1-1653; P17891 1-233) (complex)
–	117 ± 75 Units β-galactosidase activity	6 ± 1 Units β-galactosidase activity	33 ± 4 Units β-galactosidase activity	4 ± 1 Units β-galactosidase activity	–	yAP180A 432–637 (domain or fragment, S. cerevisiae, UniProt P38856 432-637, looked up) GGYSVSQDTTAASNQQVSHSQTGSNNPFALHNAATIATGNPAHENVLNNPFSRPNFDEQNTNMPLQQQIISNPFQNQTYNQQQFQQQKMPLSSINSVMTTPTSMQGSMNIPQRFDKMEFQAHYTQNHLQQQQQQQQQQQQQQQQQPQQGYYVPATAGANPVTNITGTVQPQNFPFYPQQQPQPEQSQTQQPVLGNQYANNLNLIDM
–	362 ± 67 Units β-galactosidase activity	70 ± 9 Units β-galactosidase activity	342 ± 15 Units β-galactosidase activity	158 ± 15 Units β-galactosidase activity	–	yAP180B 429–568 (domain or fragment, S. cerevisiae, UniProt P53309 429-568, looked up) GGYTTTENNAIMTGTLDPTKTGSNNPFSLENIAREQQQQNFQNSPNPFTLQQAQTTPILAHSQTGNPFQAQNVVTSPMGTYMTNPVAGQLQYASTGAQQQPQMMQGQQTGYVMVPTAFVPINQQQQQQQHQQENPNLIDI
–	–	–	–	–	3% and 5%	yAP180A, P38856 1-637 (natural protein) MTTYFKLVKGATKIKSAPPKQKYLDPILLGTSNEEDFYEIVKGLDSRINDTAWTIVYKSLLVVHLMIREGSKDVALRYYSRNLEFFDIENIRGSNGSASGDMRALDRYDNYLKVRCREFGKIKKDYVRDGYRTLKLNSGNYGSSRNKQHSINIALDHVESLEVQIQALIKNKYTQYDLSNELIIFGFKLLIQDLLALYNALNEGIITLLESFFELSHHNAERTLDLYKTFVDLTEHVVRYLKSGKTAGLKIPVIKHITTKLVRSLEEHLIEDDKTHNTFVPVDSSQGSAGAVVAKSTAQERLEQIREQKRILEAQLKNEQVAISPALTTVTAAQSYNPFGTDSSMHTNIPMAVANQTQQIANNPFVSQTQPQVMNTPTAHTEPANLNVPEYAAVQHTVNFNPVQDAGVSAQQTGYYSINNHLTPTFTGAGFGGYSVSQDTTAASNQQVSHSQTGSNNPFALHNAATIATGNPAHENVLNNPFSRPNFDEQNTNMPLQQQIISNPFQNQTYNQQQFQQQKMPLSSINSVMTTPTSMQGSMNIPQRFDKMEFQAHYTQNHLQQQQQQQQQQQQQQQQQPQQGYYVPATAGANPVTNITGTVQPQNFPFYPQQQPQPEQSQTQQPVLGNQYANNLNLIDM
–	78 ± 2 Units β-galactosidase activity	18 ± 7 Units β-galactosidase activity	23 ± 4 Units β-galactosidase activity	2 ± 0.4 Units β-galactosidase activity	–	yAP180A 24–637 (domain or fragment, S. cerevisiae, UniProt P38856 24-637, looked up) LDPILLGTSNEEDFYEIVKGLDSRINDTAWTIVYKSLLVVHLMIREGSKDVALRYYSRNLEFFDIENIRGSNGSASGDMRALDRYDNYLKVRCREFGKIKKDYVRDGYRTLKLNSGNYGSSRNKQHSINIALDHVESLEVQIQALIKNKYTQYDLSNELIIFGFKLLIQDLLALYNALNEGIITLLESFFELSHHNAERTLDLYKTFVDLTEHVVRYLKSGKTAGLKIPVIKHITTKLVRSLEEHLIEDDKTHNTFVPVDSSQGSAGAVVAKSTAQERLEQIREQKRILEAQLKNEQVAISPALTTVTAAQSYNPFGTDSSMHTNIPMAVANQTQQIANNPFVSQTQPQVMNTPTAHTEPANLNVPEYAAVQHTVNFNPVQDAGVSAQQTGYYSINNHLTPTFTGAGFGGYSVSQDTTAASNQQVSHSQTGSNNPFALHNAATIATGNPAHENVLNNPFSRPNFDEQNTNMPLQQQIISNPFQNQTYNQQQFQQQKMPLSSINSVMTTPTSMQGSMNIPQRFDKMEFQAHYTQNHLQQQQQQQQQQQQQQQQQPQQGYYVPATAGANPVTNITGTVQPQNFPFYPQQQPQPEQSQTQQPVLGNQYANNLNLIDM
